According to the supplement of paper PMC5998384:

How the values were obtained:
[1] = tested on: HeLa Kyoto; assay: solubility in G1/S (NP-40 vs SDS abundance) (log2 ratio); higher = more soluble; conditions: cell cycle stage: G1/S
[2] = tested on: HeLa Kyoto; assay: thermal stability score vs G1/S (z-score of summed log2 fold changes over temperatures); higher = more thermally stable than in G1/S
[3] = tested on: HeLa Kyoto; assay: melting temperature (median over replicates), in situ; higher = more thermally stable
[4] = tested on: HeLa Kyoto; assay: solubility change mitosis vs G1/S (difference of NP-40 vs SDS log2 ratios) (log2 ratio difference); higher = more soluble in mitosis
[5] = cell cycle stage: early G1 (4.5 h after nocodazole release)
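For melting temperature (median over replicates), in situ in this document: HeLa Kyoto cells synchronized by double thymidine or nocodazole block, proteins quantified by TMT10plex mass spectrometry, three independent biological replicates.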
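For solubility change mitosis vs G1/S (difference of NP-40 vs SDS log2 ratios) in this document: synchronized HeLa Kyoto cells (double thymidine block for G1/S, nocodazole release for mitosis), protein amounts in NP-40 versus SDS lysates quantified by mass spectrometry, three biological replicates.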
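For solubility in G1/S (NP-40 vs SDS abundance) in this document: HeLa Kyoto cells arrested at G1/S by double thymidine block, proteins quantified by TMT10plex mass spectrometry in mild NP-40 versus SDS extracts, three biological replicates.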
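For thermal stability score vs G1/S (z-score of summed log2 fold changes over temperatures) in this document: synchronized HeLa Kyoto cells, proteins quantified by TMT10plex mass spectrometry, three biological replicates, mitosis taken 0.5 h after nocodazole release, G1/S directly after double thymidine block.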

Sequence	solubility in G1/S (log2) [1]	thermal stability score [2, 5]	thermal stability score ([2]; cell cycle stage: mitosis)	melting temperature ([3]; cell cycle stage: G1/S)	melting temperature ([3]; cell cycle stage: mitosis)	solubility change mitosis (log2) [4]
MSLVAYASSDESEPDEAEPEPEEEEAVAPTSGPALGGLFASLPAPKGPALLPPPPQMLAPAFPPPLLLPPPTGDPRLQPPPPLPFGLGGFPPPPGVSPAEAAGVGEGLGLGLPSPRGPGLNLPPPIGGAGPPLGLPKPKKRKEPVKIAAPELHKGDSDSEEDEPTKKKTILQGSSEGTGLSALLPQPKNLTVKETNRLLLPHAFSRKPSDGSPDTKPSRLASKTKTSSLAPVVGTTTTTPSPSAIKAAAKSAALQVTKQITQEEDDSDEEVAPENFFSLPEKAEPPGVEPYPYPIPTVPEELPPGTEPEPAFQDDAANAPLEFKMAAGSSGAPWMPKPGDDYSYNQFSTYGDANAAGAYYQDYYSGGYYPAQDPALVPPQEIAPDASFIDDEAFKRLQGKRNRGREEINFVEIKGDDQLSGAQQWMTKSLTEEKTMKSFSKKKGEQPTGQQRRKHQITYLIHQAKERELELKNTWSENKLSRRQTQAKYGF [PRCC]	0.46	-2.8	-0.438	53.2 °C	53.8 °C	-0.00665
MIGGLFIYNHKGEVLISRVYRDDIGRNAVDAFRVNVIHARQQVRSPVTNIARTSFFHVKRSNIWLAAVTKQNVNAAMVFEFLYKMCDVMAAYFGKISEENIKNNFVLIYELLDEILDFGYPQNSETGALKTFITQQGIKSQHQTKEEQSQITSQVTGQIGWRREGIKYRRNELFLDVLESVNLLMSPQGQVLSAHVSGRVVMKSYLSGMPECKFGMNDKIVIEKQGKGTADETSKSGKQSIAIDDCTFHQCVRLSKFDSERSISFIPPDGEFELMRYRTTKDIILPFRVIPLVREVGRTKLEVKVVIKSNFKPSLLAQKIEVRIPTPLNTSGVQVICMKGKAKYKASENAIVWKIKRMAGMKESQISAEIELLPTNDKKKWARPPISMNFEVPFAPSGLKVRYLKVFEPKLNYSDHDVIKWVRYIGRSGIYETRC [AP2M1]	-0.387	-2.25	-0.263	52.3 °C	51.6 °C	0.00223
MISAAQLLDELMGRDRNLAPDEKRSNVRWDHESVCKYYLCGFCPAELFTNTRSDLGPCEKIHDENLRKQYEKSSRFMKVGYERDFLRYLQSLLAEVERRIRRGHARLALSQNQQSSGAAGPTGKNEEKIQVLTDKIDVLLQQIEELGSEGKVEEAQGMMKLVEQLKEERELLRSTTSTIESFAAQEKQMEVCEVCGAFLIVGDAQSRVDDHLMGKQHMGYAKIKATVEELKEKLRKRTEEPDRDERLKKEKQEREEREKEREREREERERKRRREEEEREKERARDRERRKRSRSRSRHSSRTSDRRCSRSRDHKRSRSRERRRSRSRDRRRSRSHDRSERKHRSRSRDRRRSKSRDRKSYKHRSKSRDREQDRKSKEKEKRGSDDKKSSVKSGSREKQSEDTNTESKESDTKNEVNGTSEDIKSEGDTQSN [LUC7L3]	-0.95	0.00947	2.68	50.1 °C	50.8 °C	0.0899
MATSSMSKGCFVFKPNSKKRKISLPIEDYFNKGKNEPEDSKLRFETYQLIWQQMKSENERLQEELNKNLFDNLIEFLQKSHSGFQKNSRDLGGQIKLREIPTAALVLGVNVTDHDLTFGSLTEALQNNVTPYVVSLQAKDCPDMKHFLQKLISQLMDCCVDIKSKEEESVHVTQRKTHYSMDSLSSWYMTVTQKTDPKMLSKKRTTSSQWQSPPVVVILKDMESFATKVLQDFIIISSQHLHEFPLILIFGIATSPIIIHRLLPHAVSSLLCIELFQSLSCKEHLTTVLDKLLLTTQFPFKINEKVLQVLTNIFLYHDFSVQNFIKGLQLSLLEHFYSQPLSVLCCNLPEAKRRINFLSNNQCENIRRLPSFRRYVEKQASEKQVALLTNERYLKEETQLLLENLHVYHMNYFLVLRCLHKFTSSLPKYPLGRQIRELYCTCLEKNIWDSEEYASVLQLLRMLAKDELMTILEKCFKVFKSYCENHLGSTAKRIEEFLAQFQSLDETKEEEDASGSQPKGLQKTDLYHLQKSLLEMKELRRSKKQTKFEVLRENVVNFIDCLVREYLLPPETQPLHEVVYFSAAHALREHLNAAPRIALHTALNNPYYYLKNEALKSEEGCIPNIAPDICIAYKLHLECSRLINLVDWSEAFATVVTAAEKMDANSATSEEMNEIIHARFIRAVSELELLGFIKPTKQKTDHVARLTWGGC [ORC3]	-0.303	1.65	2.89	48 °C	48.7 °C	-0.145
MEPSSLELPADTVQRIAAELKCHPTDERVALHLDEEDKLRHFRECFYIPKIQDLPPVDLSLVNKDENAIYFLGNSLGLQPKMVKTYLEEELDKWAKIAAYGHEVGKRPWITGDESIVGLMKDIVGANEKEIALMNALTVNLHLLMLSFFKPTPKRYKILLEAKAFPSDHYAIESQLQLHGLNIEESMRMIKPREGEETLRIEDILEVIEKEGDSIAVILFSGVHFYTGQHFNIPAITKAGQAKGCYVGFDLAHAVGNVELYLHDWGVDFACWCSYKYLNAGAGGIAGAFIHEKHAHTIKPALVGWFGHELSTRFKMDNKLQLIPGVCGFRISNPPILLVCSLHASLEIFKQATMKALRKKSVLLTGYLEYLIKHNYGKDKAATKKPVVNIITPSHVEERGCQLTITFSVPNKDVFQELEKRGVVCDKRNPNGIRVAPVPLYNSFHDVYKFTNLLTSILDSAETKN [KYNU]	0.121	-0.273	-0.415	61.5 °C	62.3 °C	-0.229
MPVWGGGNKCGACGRTVYHAEEVQCDGRSFHRCCFLCMVCRKNLDSTTVAIHDEEIYCKSCYGKKYGPKGYGYGQGAGTLNMDRGERLGIKPESVQPHRPTTNPNTSKFAQKYGGAEKCSRCGDSVYAAEKIIGAGKPWHKNCFRCAKCGKSLESTTLTEKEGEIYCKGCYAKNFGPKGFGYGQGAGALVHAQ [CSRP2]	-0.179	1.39	-3.46	59.4 °C	54.6 °C	-0.0558
MEKTQETVQRILLEPYKYLLQLPGKQVRTKLSQAFNHWLKVPEDKLQIIIEVTEMLHNASLLIDDIEDNSKLRRGFPVAHSIYGIPSVINSANYVYFLGLEKVLTLDHPDAVKLFTRQLLELHQGQGLDIYWRDNYTCPTEEEYKAMVLQKTGGLFGLAVGLMQLFSDYKEDLKPLLNTLGLFFQIRDDYANLHSKEYSENKSFCEDLTEGKFSFPTIHAIWSRPESTQVQNILRQRTENIDIKKYCVHYLEDVGSFEYTRNTLKELEAKAYKQIDARGGNPELVALVKHLSKMFKEENE [GGPS1]	0.163	-1.73	-1.98	55.2 °C	56 °C	-0.0913
